Test results as given in patent US20230257794A1.

Assays:
HIV-RSC3 = assay: biolayer interferometry (Octet); fragment secreted by L. gasseri SP1
TNFα [1] = target: TNFα (UniProt P01375); assay: biolayer interferometry; fragment secreted by L. rhamnosus GG SP1
TNFα [2] = target: TNFα (UniProt P01375); assay: biolayer interferometry (Octet); fragment secreted by L. gasseri

Chain of UniProt P01375 (P01375 77-233 limits assumed): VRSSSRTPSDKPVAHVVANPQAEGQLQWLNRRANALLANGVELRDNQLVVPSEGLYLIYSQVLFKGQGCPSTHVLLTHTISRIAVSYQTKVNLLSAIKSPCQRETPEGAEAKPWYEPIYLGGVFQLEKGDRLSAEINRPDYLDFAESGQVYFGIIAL

Substance | Kd (HIV-RSC3) | Kd (TNFα [1]) | Kd (TNFα [2])
VRC01scFv (anti-HIV single chain fragment derived from the broadly neutralizing IgG antibody VRC01) | 10.2 nM |  | 
ozoralizumab (anti-TNFα NANOBODY / antibody fragment marketed by Ablynx) (VHH) |  | 6.2 nM | 0.69 nM
